B1: mAb 3.19.3 (antibody, V domains shown)
VH: QVQLVESGGGVVQPGRSLRLSCAASGFTFTNYGMHWGRQAPGKGLEWVAVISHDGNNKYYVDSVKGRFTISRDNSKNTLYLQMNSLRAEDTAVYYCAREGIDFWSGLNWFDPWGQGTLVTVSS
VL: EIVLTQSPGTLSLSPGERATLSCRASQSITGSYLAWYQQKPGQAPRLLICGASSWATGIPDRFSGSGSGTDFTLTISRLEPEDFAVYYCQQYSSSPITFGQGTRLEIKR
notes: Human hybridoma IgG (XenoMouse); also called x3.19
B2: mAb 5.28.1 (antibody, V domains shown)
VH: EVQLVESGGIVVQPGGSLRLSCAASGFTFDDYTMHWVRQTPGKGLEWVSLISWDGGSTYYADSVKGRFTISRDNSKNSLYLQMNSLRTEDTALYYCAKDIDIAVAGTGFDHWGQGTLVTVSS
VL: EIVMTQSPATLSVSPGERATLSCRASQSVTSNLAWYQQKPGQAPRLLIYGALIRATGIPARFSGSGSGTEFTLTISSLQSEDFAVYYCQQYNNWPFTFGPGTKVDIKR
notes: Human hybridoma IgG (XenoMouse); also called x5.28

How the values were obtained:
human Angiopoietin-2 [1] = target: T1, human Angiopoietin-2 (human, UniProt O15123 19-496); test: cell-based or functional assay
T1 sequence: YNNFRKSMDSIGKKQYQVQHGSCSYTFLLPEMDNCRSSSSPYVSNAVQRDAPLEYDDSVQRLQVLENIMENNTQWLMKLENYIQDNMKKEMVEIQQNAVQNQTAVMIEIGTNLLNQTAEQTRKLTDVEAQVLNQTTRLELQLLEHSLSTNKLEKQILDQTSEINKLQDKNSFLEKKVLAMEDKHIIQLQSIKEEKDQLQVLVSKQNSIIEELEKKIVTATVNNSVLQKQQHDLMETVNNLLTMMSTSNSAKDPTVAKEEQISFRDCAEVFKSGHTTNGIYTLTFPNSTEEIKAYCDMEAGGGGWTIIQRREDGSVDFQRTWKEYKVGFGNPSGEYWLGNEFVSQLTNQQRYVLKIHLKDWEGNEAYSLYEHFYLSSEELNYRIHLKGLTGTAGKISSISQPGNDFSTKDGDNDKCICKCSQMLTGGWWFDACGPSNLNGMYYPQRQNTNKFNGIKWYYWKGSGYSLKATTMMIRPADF

human Angiopoietin-2 [2] = target: T1, human Angiopoietin-2; test: high resolution Biacore, 1st experiment; kd held constant (*)
Method: (§1) The mAb was then immobilized on flow cells 1-3 (CM5 Biacore chip) using routine amine coupling, leaving flow cell 4 as the reference flow cell.
(§2) The antibody surfaces were regenerated with a 6-second pulse of 15 mM NaOH after each injection cycle.
(§3) The sample injections alternated with three blank injection cycles. Each surface was regenerated with a 6-second pulse of 15 mM NaOH after each long off-rate injection cycle.

human Angiopoietin-2 [3] = target: T1, human Angiopoietin-2; test: inhibition of rhAng-2 binding to its receptor
mouse Angiopoietin-2 = target: T2, mouse Angiopoietin-2 (mouse, UniProt O35608 19-496); test: ELISA on plates coated with conditioned medium of HEK293F/mouse Ang-2 transfectants, mAb titrated, detection with anti-human Fc-HRP
T2 construct: Used as conditioned medium of transfectants; also called mAng-2; mouse Ang-2
T2 sequence: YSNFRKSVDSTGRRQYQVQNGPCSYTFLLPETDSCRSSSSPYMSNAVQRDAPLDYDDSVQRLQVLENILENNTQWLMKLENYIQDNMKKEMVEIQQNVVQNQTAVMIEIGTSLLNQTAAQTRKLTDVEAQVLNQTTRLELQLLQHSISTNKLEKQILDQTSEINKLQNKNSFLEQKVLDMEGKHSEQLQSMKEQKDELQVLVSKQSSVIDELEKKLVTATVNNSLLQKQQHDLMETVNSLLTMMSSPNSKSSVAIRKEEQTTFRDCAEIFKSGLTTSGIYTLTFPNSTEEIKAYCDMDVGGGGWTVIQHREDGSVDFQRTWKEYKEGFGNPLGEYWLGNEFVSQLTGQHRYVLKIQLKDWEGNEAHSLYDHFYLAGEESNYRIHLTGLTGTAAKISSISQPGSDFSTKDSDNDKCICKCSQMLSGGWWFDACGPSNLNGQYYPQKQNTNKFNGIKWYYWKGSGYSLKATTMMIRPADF
Method: The plates were incubated at 4° C. overnight, followed by washing four times using Phosphate Buffer Saline with a Skan Washer 300 station (SKATRON). The wells were blocked by 100 μl of ABX-block buffer (0.5% BSA, 0.1% Tween, 0.01% Thimerosal in PBS) for 1 hour. […] The mAbs and each of their dilutes were tested in duplicate. After washing twice, the bound mAbs were detected by goat anti-human Fc-HPPO-conjugated antibody (Caltag, Code H10507) at 1/1,000 dilution at room temperature for an hour. To set up the detecting chromagenic reaction, 100 μl of TMB substrate (TMB-microwell, BioFX, Cat. No. TMSK-1000-01) was added after washing the wells three times using PBS. The plates were incubated for 30 minutes before 650 stop solution (100 μl/well, BioFX, Cat. No. BSTP-0100-01) was added to terminate the reaction. The light absorbance at […] was determined by a Spectramax Plus reader.

human Angiopoietin-2 [4] = target: T1, human Angiopoietin-2; test: high resolution Biacore, mAb immobilized, 1st experiment
Method: as §1, §2, §3

human Angiopoietin-2 [5] = target: T1, human Angiopoietin-2; test: competition ELISA: biotin-Ang-2 on coated Tie2/Fc
Method: 96-well Nunc Immplates™ were coated with 100 μl of recombinant human Tie2/Fc fusion protein (R&D Systems, Inc., Cat. No. 313-TI-100) at 4 μg/ml by incubating overnight at 4° C. The plates were washed four times using Phosphate Buffer Saline (PBS) with a Skan™ Washer 300 station (SKATRON). The wells were blocked by 100 μl of ABX-blocking buffer (0.5% BSA, 0.1% Tween, 0.01% Thimerosal in PBS) for 1 hour.
The plates were incubated at room temperature for two hours before the unbound molecules were washed off. […] After washing twice, the bound Streptavidin was detected by HRP substrate (R&D Systems, Cat. No. DY998). The plates were incubated for 30 minutes before 450 stop solution (100 μl/well, BioFX, Cat# BSTP-0100-01) was added to terminate the reaction. The light absorbance at 450 nm was determined by a Spectramax Plus reader.
Each concentration of the mAb was tested in duplicate. The concentration-response relationship was found by curve fitting using Graphpad Prism™ graphic software (non-linear, Sigmoid curve). The maximal inhibition (efficacy) and IC₅₀ (potency) were calculated by the software.

human Angiopoietin-2 [6] = target: T1, human Angiopoietin-2; test: FACS: inhibition of Ang-2 binding to HEK293F/Tie2 cells
Method: Cell suspension of 4 million cells/mL in FACS Buffer were prepared, and then aliquoted to a 96-well polypropylene plate with 50 ul per well. […] Cells were washed by centrifuging the plate at 1,200 rpm for 5 minutes, removing the supernatant by aspirating, and resuspending the cells with 200 ul per well of FACS Buffer. Washing procedures were repeated twice. The cells were then suspended with 100 ul of mouse Anti-6×-Histidine antibody diluted to 2 ug/ml in FACS Buffer, and incubated at room temperature for 30 minutes. After washing, the cells were suspended in 100 ul of PE-conjugated goat anti-mouse-IgG, which was diluted 1:100 in FACS Buffer, for incubation at room temperature for 30 minutes. The volume of the samples were brought to 300 ul with FACS Buffer, and measured with FACS Calibur.

Binder	EC50, inhibition of Ang-2-induced Tie2 phosphorylation (HEK293F/Tie2, ELISA) (human Angiopoietin-2 [1]) [µg/mL]	koff (human Angiopoietin-2 [2]) [s⁻¹]	OD650 in inhibition assay (human Angiopoietin-2 [3]) [OD650]	EC50 (read off the curve) (mouse Angiopoietin-2) [µg/mL]	Kd (human Angiopoietin-2 [4]) [pM]	kon (human Angiopoietin-2 [4]) [M⁻¹ s⁻¹]	EC50 (human Angiopoietin-2 [5]) [µg/mL]	Efficacy (ratio of bound Ang-2 with mAb 30 µg/ml versus without) (human Angiopoietin-2 [5]) [ratio]	EC50 (human Angiopoietin-2 [6]) [pM]	binding result (mouse Angiopoietin-2)
B1	0.006	~1e-06	0.0633	~1	5.3	189000	0.798	0.395	731	
B2			0.0821				2.7	0.389		no binding (tested: 100 µg/ml)

Reference: patent US20080267971A1 (published 2008)
